The DeepSol protein solubility set

Test: soluble on expression in E. coli; label from the status in PepcDB or PDB records

**Q.** Which “soluble on expression in E. coli” value does the source give for “MSLARFVVLVIDSFGVGAMKDVTLVRPQDAGANTCGHILSQLPHLQLPTLETLGLINALGYAPGDMQPSDSATWGVAELQHEGGDTFMGHQEILGTRPLPPLRMPFRDVIDRVEQALVSAGWQVERRGDDLQFLWVNQAVAIGDNLEADLGQVYNITANLSVISFDDAIKIGRIVREQVQVGRVITFGGLLTDSQRILDAAESKEGRFIGINAPRSGAYDNGFQVVHMGYGVDEKVQVPQKLYEAGVPTVLVGKVADIVNNPYGVSWQNLVDSQRIMDITLNEFNTHPTAFICTNIQETDLAGHAEDVARYAERLQVVDRNLARLVEAMQPDDCLVVMADHGNDPTIGHSHHTREVVPVLVYQQGMIATQLGVRTTLSDVGATVCEFFRAPPPQNGRSFLSSLRFAGDTLEGHHHHHH” here?
**A.** soluble

**Q.** With “SEKMKLLYVYDPLCGWCYGFGPVVEKIEKNYKGTVDVEIISGGMVMGNRIAPIGNMSEYILDAIPRLQRMTGIEFGQPYITLLKEGSYVTSSEKPSIALCVYKSFTAERAVEYGHAIQTSFYKEGKDLNQDVLYADLATSYGIDRAAFLKRMKDSVYFNQAHEEFKRAAALGVTGFPTLLLKQENGYTALTEGYATYESIEKQLQKHVKAAGTK” as the sequence, how does the “soluble on expression in E. coli” value read?
**A.** not soluble

**Q.** For “MGKEKVHINIVVIGHVDSGKSTTTGHLIYKCGGIDKRTIEKFEKEAQEMGKGSFKYAWVLDKLKAERERGITIDIALWKFETAKYYITIIDAPGHRDFIKNMITGTSQADCAVLVVACNKMDSTEPPFSEARFTEITNEVSGFIKKIGYNPKAVPFVPISGFNGDNMLEVSSNMPWFKGWAVERKEGNASGKTLLEALDSIIPPQRPTDRPLRLPLQDVYKIGGIGTVPVGRVETGIIKPGMVVTFAPQNVTTEVKSVEMHHESLPEAVPGDNVGFNVKNVSVKDIRRGSVCSDSKQDPAKEARTFHAQVIIMNHPGQISNGYTPVLDCHTAHIACKFNELKEKVDRRTGKKVEDFPKFLKSGDAGIVELIPTKPLCVESFTDYAPLGRFAVRDMRQTVAVGVIKSVEKSDGSSGKVTKSAQKAAPKKK”, which “soluble on expression in E. coli” value is on record?
**A.** not soluble

**Q.** With “MEKQYRVLLYYKYVPIEDPEAFREQHLAFCKELGLLGRILVSSEGINGTVSGTVEQTEKYMETMKADPRFADMVFKIDEAEGHAFKKIFVRHKKELVTLRLEDDVDPNETTGQHLKPAEFYEKMQDPNTIVIDARNDYEYDLGHFRGAVRPDIEAFRELPEWIEEHKDMLEGKKILTYCTGGVRCEKFSGWLVKQGFEDVAQLDGGIVTYGKDPEVQGKLWDGQCYVFDERISVPVNRVEHVIVGKDYFTGEPCERYVNCANPSCNKKMICTPENEYKYMRSCSHECRTNPRNLYVKEHNMTEEEVNARLAAIETEDHAAAELEHHHHHH” as the sequence, how does the “soluble on expression in E. coli” value read?
**A.** soluble

**Q.** Which “soluble on expression in E. coli” value does the source give for “MSLSVPFEYTPIAQSVLDECEHLDTASLSDALDSLGIDGGLPGIASQVPGTRCVGIAFTVQYQPVDASEGFRGAANYIDQVPSGSVIVSSNSGRHDCTVWGDIMTHFALANGIKGTVIDGVARDIDTVINCNYPLFSRGRFMQSAKNRTQLKAVQVPLVIDGITIQPGDLMVCDGSGCVVVPQQLAAEVVLRARAVEQTERRIIEAISSGSTLEQARMTYRYDQPWLSEAEHGGTQEGHHHHHH” here?
**A.** soluble

**Q.** Which “soluble on expression in E. coli” value does the source give for “TNTEAFCTSCHEMQSNVFEELTRTVHYTNRSGVRAGCPDCHVPHEWTDKIARKMQASKEVWGHLFGTIDTRRKFLDNRLRLAEHEWARLKANDSLECRNCHSEVAMDFTRQTDRAAQIHTQYLIQTEGYTCIDCHKGIAHEL” here?
**A.** not soluble

**Q.** Which “soluble on expression in E. coli” value does the source give for “MRSKRFEALAKRPVNQDGFVKEWIEEGFIAMESPNDPKPSIKIVNGAVTELDGKPVSDFDLIDHFIARYGINLNRAEEVMAMDSVKLANMLCDPNVKRSEIVPLTTAMTPAKIVEVVSHMNVVEMMMAMQKMRARRTPSQQAHVTNVKDNPVQIAADAAEGAWRGFDEQETTVAVARYAPFNAIALLVGSQVGRPGVLTQCSLEEATELKLGMLGHTCYAETISVYGTEPVFTDGDDTPWSKGFLASSYASRGLKMRFTSGSGSEVQMGYAEGKSMLYLEARCIYITKAAGVQGLQNGSVSCIGVPSAVPSGIRAVLAENLICSSLDLECASSNDQTFTHSDMRRTARLLMQFLPGTDFISSGYSAVPNYDNMFAGSNEDAEDFDDYNVIQRDLKVDGGLRPVREEDVIAIRNKAARALQAVFAGMGLPPITDEEVEAATYAHGSKDMPERNIVEDIKFAQEIINKNRNGLEVVKALAQGGFTDVAQDMLNIQKAKLTGDYLHTSAIIVGDGQVLSAVNDVNDYAGPATGYRLQGERWEEIKNIPGALDPNEID” here?
**A.** soluble

**Q.** Which “soluble on expression in E. coli” value does the source give for “MAHHHHHHMAVLVKNYEASLVDMAVQDFIKLGIDGVYTTMKTVVSFEYIFNFTSHMRNLHKYSTNFLELQINDHNKECVTNILQNLTMENIRKSSSASIKAGFEFLNALNDDIKKKHFSENVNYMVMVTITWDIHGNSGVSPNEPFSILCYIKCLPKHGSHVQIDIMCGERKTPNIKYSNVFDVRNKMLKLKSEDSHEVVLYNEKEEITEGLTCNFFCFFNDTLYTANDELVLKGTMREQIIHICEEEGVKLKKEAISIRDVGRFEFCFICSTTRNIIPVKKIILCSENKAEFEKDVHHPVLVKLQQKLREAVEKKKEKYEAYVSAALGV” here?
**A.** not soluble

**Q.** With “MSENIRESISAKTLSKDQMETSYVSLKTWIEDSLDLFKNDLLPLLYPLFIHIYFDLIQQNKTDEAKEFFEKYRGDHYNKSEEIKQFESIYTVQHIHENNFAYTFKNSKYHLSMGRYAFDLLINFLEERNLTYILKILNQHLDIKVYVGPKSEERPQGIETSVVDAEIDLTTFLVSRECEDAILGDEQYRYDHLETYVLQLRKQREMKPKDSVYKPNASQIHAEIEKLKDLCKRVAVNKNNLPSICCYTIHNTYEGLTAAEISNDLKLMACGFKDSYVEVYSLTNESLKKLKSSSELAKSDIKTLNEEKFEEVGSSYKLVGHSGPVYGLKFFSSNKFLVSSSQDCTVCLWSLDLLCLLAVYKAHAFPVWCVDVAPNDYFFASGAGDRQAIVWSVMTSKPERLIISSLSDVTAVKFHPNSSYLFTGSSDHRVRMHDISTASVVRIFCGHTDTVTCMDVSHCGKFLASGSKDRTVLLWDIQSSKLLGKYVGHENTVFSVSFCFYGSVLASCGADNSVRLWDRTDHKGGCLGTYYTKNTPLLCVKFGYRNIISCTGPFIS” as the sequence, how does the “soluble on expression in E. coli” value read?
**A.** soluble

**Q.** With “MSGVTAIEIPQWIQDNQEDFVPPVCNKCMFSDQLKVFYVGGPNQRKDFHLEEGEEFFFQRKGDMVLKVIEKGQVRDLVIKQGEMFMLPARVEHSPQRFSNSIGLVVERERKNTEFDCVRFLVGSSNITLFERWFYLTDVVKDLPPLIKEFYGSNEFKTGKPGKGTFACNAPYEARWTDLPVPINRKEFIYDHISEVKNGPVRIYGAPEYKTEVMLLGEGSYDLESGTVELLIWLQENTFAVVEESGFTYAMKSETMVRIKPNTKCLLNVKGGFAITIRMPA” as the sequence, how does the “soluble on expression in E. coli” value read?
**A.** not soluble

**Q.** For “MGSDKIHHHHHHMLNQSNELNAWDRDHFFHPSTHMGTHARGESPTRIMAGGEGVTVWDNNGRKSIDAFAGLYCVNVGYGRQKIADAIATQAKNLAYYHAYVGHGTEASITLAKMIIDRAPKGMSRVYFGLSGSDANETNIKLIWYYNNVLGRPEKKKIISRWRGYHGSGVMTGSLTGLDLFHNAFDLPRAPVLHTEAPYYFRRTDRSMSEEQFSQHCADKLEEMILAEGPETIAAFIGEPILGTGGIVPPPAGYWEKIQAVLKKYDVLLVADEVVTGFGRLGTMFGSDHYGIKPDLITIAKGLTSAYAPLSGVIVADRVWQVLVQGSDKLGSLGHGWTYSAHPICVAAGVANLELIDEMDLVTNAGETGAYFRAELAKAVGGHKNVGEVRGDGMLAAVEFVADKDDRVFFDASQKIGPQVATALAASGVIGRAMPQGDILGFAPPLCLTREQADIVVSKTADAVKSVFANL”, which “soluble on expression in E. coli” value is on record?
**A.** not soluble

**Q.** Which “soluble on expression in E. coli” value does the source give for “ICFSKIFNTQYLSDIRYIDLNQNIDTIKSNFKKGLRYNIKKSKNEGCDLKIIENPSSEDIDHFMECYNSMLCRNESSEKYHFSKQFIMDHFKFIKTFLILAYYQKKVVGAGIFFKGETIMHYHLSGTLKLKGIYPNDLILWESIKKSKDLGLKYFFLGGGVIKDDSLFEYKSGFSK” here?
**A.** not soluble

**Q.** With “MPPVVPCHCTQCRKWSGHFWAATSVAMADFRLVRDEGLRWFRASDTASRGFCALCGSSLSWKPDGRDRMSFSPGAVDGPTGLATGHHIFMDEAGDYCRVSDGTPHYPGDDEA” as the sequence, how does the “soluble on expression in E. coli” value read?
**A.** not soluble

**Q.** For “MDKLKVAELFAGVGGFRLGLENTKEKIFDVTWANQWEPSKKIQHAFDCYNSRFITGEHVNKDIALISDEEIANTKADMVVGGFPCQDYSVARSLSGELGIQGKKGVLFWQIIRFIQNTYPKYLLLENVDRLLKSPSSQRGRDFGVMLSTLNELGYNVEWRVINAADYGNAQRRRRVFIFGYKQDLEHHHHHH”, which “soluble on expression in E. coli” value is on record?
**A.** soluble
